Results reported in patent US20090170141A1 (University of Texas, published 2009).

T1: recombinant wild-type pro-ghrelin-His8 (mouse, UniProt Q9EQX0 24-117)
T1 sequence: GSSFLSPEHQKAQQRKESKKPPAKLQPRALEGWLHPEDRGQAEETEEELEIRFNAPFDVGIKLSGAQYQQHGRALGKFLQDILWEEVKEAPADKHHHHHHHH

T2: recombinant wild-type pro-ghrelin-His8, Q9EQX0
T2 chain: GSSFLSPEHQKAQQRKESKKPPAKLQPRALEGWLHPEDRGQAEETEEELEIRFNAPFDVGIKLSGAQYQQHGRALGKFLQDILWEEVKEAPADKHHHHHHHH


Tests used:
[1] = target: T1, recombinant wild-type pro-ghrelin-His8; assay: cell-based or functional assay
[2] = target: T2, recombinant wild-type pro-ghrelin-His8, …

Row | Molecule | acylating activity of GOAT in Sf9 membranes against that in INS-1 cell membranes [1] | amount of [3H]octanoyl pro-ghrelin formed, in vitro assay with Sf9 membranes, against S3A mutant pro-ghrelin as substrate [2] | 3H-radioactivity covalently linked to pro-ghrelin, in vitro assay with [3H]octanoyl CoA and INS-1 cell membranes, against mock-transfected membranes [1]
1 | GOAT expressed in Sf9 insect cells from pFastBac HT-A (His10-tag) (from UniProt P0C7A3 1-435) (enzyme) | 5 fold | – | –
2 | mouse ghrelin O-acyltransferase (GOAT) (enzyme) MDWLQLFFLHPLSFYQGAAFPFALLFNYLCILDTFSTRARYLFLLAGGGVLAFAAMGPYSLLIFIPALCAVALVSFLSPQEVHRLTFFFQMGWQTLCHLGLHYTEYYLGEPPPVRFYITLSSLMLLTQRVTSLSLDICEGKVEAPRRGIRSKSSFSEHLWDALPHFSYLLFFPALLGGSLCSFRRFQACVQRSSSLYPSISFRALTWRGLQILGLECLKVALRSAVSAGAGLDDCQRLECIYLMWSTAWLFKLTYYSHWILDDSLLHAAGFGAEAGQGPGEEGYVPDVDIWTLETTHRISLFARQWNRSTALWLRRLVFRKSRRWPLLQTFAFSAWWHGLHPGQVFGFLCWSVMVKADYLIHTFANVCIRSWPLRLLYRALTWAHTQLIIAYIMLAVEGRSLSSLCQLCCSYNSLFPVMYGLLLFLLAERKDKRN | – | more than 5-fold higher than when the S3A mutant pro-ghrelin was used as the substrate | 5 fold
